Molecular target: recombinant human TNFα (RDI) (UniProt P01375)
Sequence (P01375 77-233): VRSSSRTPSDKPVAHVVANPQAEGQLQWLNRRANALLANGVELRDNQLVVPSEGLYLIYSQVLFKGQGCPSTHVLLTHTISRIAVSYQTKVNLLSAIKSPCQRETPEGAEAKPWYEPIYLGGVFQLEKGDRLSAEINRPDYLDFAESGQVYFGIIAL

Chain of MMP12 (P39900 106-470): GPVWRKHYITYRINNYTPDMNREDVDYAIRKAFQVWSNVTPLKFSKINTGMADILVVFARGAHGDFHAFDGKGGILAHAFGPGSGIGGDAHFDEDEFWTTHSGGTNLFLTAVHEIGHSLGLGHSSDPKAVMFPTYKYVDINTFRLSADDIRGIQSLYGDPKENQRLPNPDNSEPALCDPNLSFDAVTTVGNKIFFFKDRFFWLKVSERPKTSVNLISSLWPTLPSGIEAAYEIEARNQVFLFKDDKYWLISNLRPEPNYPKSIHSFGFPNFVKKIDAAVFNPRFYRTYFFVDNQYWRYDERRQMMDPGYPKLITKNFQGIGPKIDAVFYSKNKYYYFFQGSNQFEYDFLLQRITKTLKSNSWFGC
Chain of Plasmin (P00747 20-580): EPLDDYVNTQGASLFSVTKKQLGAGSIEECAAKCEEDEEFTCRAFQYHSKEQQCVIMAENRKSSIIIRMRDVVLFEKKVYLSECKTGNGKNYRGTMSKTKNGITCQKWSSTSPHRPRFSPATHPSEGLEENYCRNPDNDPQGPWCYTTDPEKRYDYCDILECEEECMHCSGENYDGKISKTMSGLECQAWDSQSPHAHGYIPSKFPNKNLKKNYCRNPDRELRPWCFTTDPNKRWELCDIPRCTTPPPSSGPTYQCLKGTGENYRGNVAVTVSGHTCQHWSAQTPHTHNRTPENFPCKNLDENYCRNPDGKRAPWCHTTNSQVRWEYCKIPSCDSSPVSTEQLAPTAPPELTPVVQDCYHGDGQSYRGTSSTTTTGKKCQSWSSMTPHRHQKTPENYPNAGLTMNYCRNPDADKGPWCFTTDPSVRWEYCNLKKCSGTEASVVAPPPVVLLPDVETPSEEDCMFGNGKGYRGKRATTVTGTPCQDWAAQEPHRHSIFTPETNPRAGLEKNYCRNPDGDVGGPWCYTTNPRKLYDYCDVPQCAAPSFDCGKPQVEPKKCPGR
Chain of Plasmin (P00747 581-810): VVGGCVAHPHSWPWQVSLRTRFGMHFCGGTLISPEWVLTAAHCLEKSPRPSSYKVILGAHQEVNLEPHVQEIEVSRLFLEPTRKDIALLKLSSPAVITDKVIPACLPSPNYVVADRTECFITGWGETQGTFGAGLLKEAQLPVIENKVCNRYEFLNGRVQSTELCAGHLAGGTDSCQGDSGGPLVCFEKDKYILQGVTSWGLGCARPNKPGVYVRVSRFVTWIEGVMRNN

CHYMOTRYPSIN
log reduction in TNFα activity (L929 cytotoxicity bioassay after overnight digestion): CHYMOTRYPSIN (2.74)

MT1-MMP
log reduction in TNFα activity (L929 cytotoxicity bioassay after overnight digestion): MT1-MMP (0.86)

ADAM10
inactivation of TNFα (L929 cytotoxicity bioassay after overnight digestion): ADAM10 (under: Proteases that did not inactivate TNF)

Furin
inactivation of TNFα (L929 cytotoxicity bioassay after overnight digestion): Furin (under: Proteases that did not inactivate TNF)

TRYPSIN
log reduction in TNFα activity (L929 cytotoxicity bioassay after overnight digestion): TRYPSIN (2.3)

HIV Protease
inactivation of TNFα (L929 cytotoxicity bioassay after overnight digestion): HIV Protease (under: Proteases that did not inactivate TNF)

Plasmin
inactivation of TNFα (L929 cytotoxicity bioassay after overnight digestion): Plasmin (under: Proteases that did not inactivate TNF)

ELASTASE
log reduction in TNFα activity (L929 cytotoxicity bioassay after overnight digestion): ELASTASE (1.45)

MT5-MMP
inactivation of TNFα (L929 cytotoxicity bioassay after overnight digestion): MT5-MMP (under: Proteases that did not inactivate TNF)

Kallikrein5
inactivation of TNFα (L929 cytotoxicity bioassay after overnight digestion): Kallikrein5 (under: Proteases that did not inactivate TNF)

TACE
inactivation of TNFα (L929 cytotoxicity bioassay after overnight digestion): TACE (under: Proteases that did not inactivate TNF)

MMP12
log reduction in TNFα activity (L929 cytotoxicity bioassay after overnight digestion): MMP12 (0.65)

Enterokinase
inactivation of TNFα (L929 cytotoxicity bioassay after overnight digestion): Enterokinase (under: Proteases that did not inactivate TNF)

Urokinase
inactivation of TNFα (L929 cytotoxicity bioassay after overnight digestion): Urokinase (under: Proteases that did not inactivate TNF)

Tryptase
log reduction in TNFα activity (L929 cytotoxicity bioassay after overnight digestion): Tryptase (0.62)

MMP3
inactivation of TNFα (L929 cytotoxicity bioassay after overnight digestion): MMP3 (under: Proteases that did not inactivate TNF)

Source: patent US20040081647
